± gives the uncertainty stated by the source.
B1: Unconventional myosin-Ie, residues 1051 to 1108; numbered along this chain, Q12965 (parent)
chain: PQVPQCKALYAYDAQDTDELSFNANDIIDIIKEDPSGWWTGRLRGKQGLFPNNYVTKI

Variants of: B1
Assay: abundance fitness (aPCA) (normalised: wild type 0, dead -1); higher = more abundant; growth selection in yeast, the domain comes from the species named
Conditions: Homo sapiens

First: PQVPQCKALYAYDATDTDELSFNANDIIDIIKEDPSGWWTGRLRGKQGLFPNNYVTKI [Q15T]
Second: PQVPQCKALYAYDASDTDELSFNANDIIDIIKEDPSGWWTGRLRGKQGLFPNNYVTKI [Q15S]
The abundance fitness of the first is higher: -0.054 ± 0.061 for the first, -0.261 ± 0.083 for the second.

PQVPQCKALYAYDAQDTDELSFNANDIIDIIKEEPSGWWTGRLRGKQGLFPNNYVTKI [D34E] and PQVPQCKALYSYDAQDTDELSFNANDIIDIIKEDPSGWWTGRLRGKQGLFPNNYVTKI [A11S] are within error of each other in abundance fitness: 0.06 ± 0.06 for the first, -0.023 ± 0.058 for the second.

First: PQVPQCKALYDYDAQDTDELSFNANDIIDIIKEDPSGWWTGRLRGKQGLFPNNYVTKI [A11D]
Second: PQVPQCKALYAYDAQDTDELSFNANDIIDIIKEDPSGWWTGRLRGKQGNFPNNYVTKI [L49N]
The abundance fitness of the first is higher: 0.102 ± 0.096 for the first, -0.428 ± 0.11 for the second.

First: AQVPQCKALYAYDAQDTDELSFNANDIIDIIKEDPSGWWTGRLRGKQGLFPNNYVTKI [P1A]
Second: RQVPQCKALYAYDAQDTDELSFNANDIIDIIKEDPSGWWTGRLRGKQGLFPNNYVTKI [P1R]
The abundance fitness of the first is higher: 0.03 ± 0.074 for the first, -0.362 ± 0.092 for the second.

First: PQVPQCKALYAYDAQDTDELSFNANDIIDIFKEDPSGWWTGRLRGKQGLFPNNYVTKI [I31F]
Second: PQVPQCKALYAYDAQDTDELSFNANDIIDILKEDPSGWWTGRLRGKQGLFPNNYVTKI [I31L]
The abundance fitness of the first is lower: -0.462 ± 0.091 for the first, 0.001 ± 0.042 for the second.

First: PQVPQCKALYAYDAQDTDELSFNANDIIDIQKEDPSGWWTGRLRGKQGLFPNNYVTKI [I31Q]
Second: PQVPQCKALYAYDAQDTDELSFGANDIIDIIKEDPSGWWTGRLRGKQGLFPNNYVTKI [N23G]
The abundance fitness of the first is lower: -0.48 ± 0.08 for the first, -0.048 ± 0.027 for the second.

Compared with PQVPQCKALYAYDAQDTDELSFSANDIIDIIKEDPSGWWTGRLRGKQGLFPNNYVTKI [N23S], PQVPQCKALYAYDAQDTDELSFYANDIIDIIKEDPSGWWTGRLRGKQGLFPNNYVTKI [N23Y] is lower in abundance fitness: 0.004 ± 0.027 for the first, -0.155 ± 0.033 for the second.

First: PQVPQCKAFYAYDAQDTDELSFNANDIIDIIKEDPSGWWTGRLRGKQGLFPNNYVTKI [L9F]
Second: PQVPQCKALYAYDAQDTDELSFNANDIIDIIKEDPSGWWTGRLRGSQGLFPNNYVTKI [K46S]
The abundance fitness of the first is lower: -0.743 ± 0.36 for the first, -0.073 ± 0.064 for the second.

First: PQVPQCKALYAYDAQDTDELSFNANDIIDIIKEDPSGWWTGRLRGTQGLFPNNYVTKI [K46T]
Second: PQVPQCKALYAYDAQDTDELSFNANDIIDIIKEDPSGWWTGRLRGMQGLFPNNYVTKI [K46M]
The abundance fitness of the first is lower: -0.146 ± 0.084 for the first, 0.054 ± 0.08 for the second.

Going from PQVPQCKALYAYDAQDTDELSFNANDIIDIIKEDMSGWWTGRLRGKQGLFPNNYVTKI [P35M] to PQVPQCKALYAYDAQDLDELSFNANDIIDIIKEDPSGWWTGRLRGKQGLFPNNYVTKI [T17L], the abundance fitness falls from -0.075 ± 0.072 to -0.239 ± 0.06.

PQVPQCKALYAYDAQDHDELSFNANDIIDIIKEDPSGWWTGRLRGKQGLFPNNYVTKI [T17H] and PQVPQCKALYAYDAQDTDELSFNANDIIDIIKEDPSGWWTGRLRGKQGLFRNNYVTKI [P51R] are within error of each other in abundance fitness: -0.137 ± 0.19 for the first, -0.026 ± 0.036 for the second.

PQVPQCKALYAYDAQDTDELSFNANDIIDIIKEDPSGWWTGRLRGKQGLFDNNYVTKI [P51D] and PQVPQCKALYAYDAQDTDELSFNANDIIDIIKEDPSGWWTGRLRGKQGLFPNNYVDKI [T56D] are within error of each other in abundance fitness: -0.114 ± 0.066 for the first, -0.034 ± 0.039 for the second.

PQVPQCKALYAYDAQDTDELSFNANDIIDIIKEDPSKWWTGRLRGKQGLFPNNYVTKI [G37K] and PQVPQCKALYAYDAQDTDELSFNANDIIDIIKEDPSGWWTGRLRGKQGLWPNNYVTKI [F50W] are within error of each other in abundance fitness: -0.728 ± 0.082 for the first, -0.944 ± 0.14 for the second.

Going from PQVPQCKALYAYDAQDTDELSFNANDIIDIIKEDPSGWWTGRLRGKQGLLPNNYVTKI [F50L] to PQVPQCKALYAYDAQDTDELSFNANDIIDIIKEDPSGWWTGRLRGKQGLIPNNYVTKI [F50I], the abundance fitness rises from -0.19 ± 0.058 to 0.069 ± 0.076.

PQVPQCKALYAYDAQDTDELSFNANDIIDMIKEDPSGWWTGRLRGKQGLFPNNYVTKI [I30M] and PQVPQCKALYAYDAQDTDELSFNANDIIDNIKEDPSGWWTGRLRGKQGLFPNNYVTKI [I30N] are within error of each other in abundance fitness: -0.465 ± 0.097 for the first, -0.85 ± 0.32 for the second.

PQVPQCKFLYAYDAQDTDELSFNANDIIDIIKEDPSGWWTGRLRGKQGLFPNNYVTKI [A8F] and PQVPQCKTLYAYDAQDTDELSFNANDIIDIIKEDPSGWWTGRLRGKQGLFPNNYVTKI [A8T] are within error of each other in abundance fitness: -0.619 ± 0.31 for the first, -0.544 ± 0.12 for the second.

PQVPQCKALYAYDAQDTDELSFNANDIIDIIKEDPSGWWTGFLRGKQGLFPNNYVTKI [R42F] and PQVPQCKALYAYDAQGTDELSFNANDIIDIIKEDPSGWWTGRLRGKQGLFPNNYVTKI [D16G] are within error of each other in abundance fitness: -0.193 ± 0.28 for the first, -0.156 ± 0.047 for the second.

First: PQVPQCKALYAYDAQDTDELSFNANDIIDIIKEDPSGWWTGRLRGKQGLFPNNYPTKI [V55P]
Second: PQVPQCKALYAYDAQDTDELSFNANDIIDIIMEDPSGWWTGRLRGKQGLFPNNYVTKI [K32M]
The abundance fitness of the first is lower: -0.747 ± 0.28 for the first, -0.1 ± 0.074 for the second.

PQVPQCKALYAYDAQDTDELSFNANDIIDIIYEDPSGWWTGRLRGKQGLFPNNYVTKI [K32Y] and PQVPQCKALYAYDAQDTDELSFNANDIIDIINEDPSGWWTGRLRGKQGLFPNNYVTKI [K32N] are within error of each other in abundance fitness: -0.105 ± 0.082 for the first, -0.009 ± 0.073 for the second.

First: PQVPQCKALYASDAQDTDELSFNANDIIDIIKEDPSGWWTGRLRGKQGLFPNNYVTKI [Y12S]
Second: PQVPQCKALYAYDAQDTDELSFNANDDIDIIKEDPSGWWTGRLRGKQGLFPNNYVTKI [I27D]
The abundance fitness of the first is lower: -0.909 ± 0.087 for the first, -0.618 ± 0.038 for the second.

Compared with PQVPQCKALYAYDAQDTDELSFNANDTIDIIKEDPSGWWTGRLRGKQGLFPNNYVTKI [I27T], PQVPQCKALYAYDAQDTDELSFNANDEIDIIKEDPSGWWTGRLRGKQGLFPNNYVTKI [I27E] is lower in abundance fitness: -0.26 ± 0.074 for the first, -0.432 ± 0.058 for the second.

First: PQVPQCKALYAYDAQDTDELSFNANDHIDIIKEDPSGWWTGRLRGKQGLFPNNYVTKI [I27H]
Second: PQVPQCKALYAYDAQDTDELSFNANDLIDIIKEDPSGWWTGRLRGKQGLFPNNYVTKI [I27L]
The abundance fitness of the first is lower: -0.306 ± 0.069 for the first, -0.15 ± 0.047 for the second.

Compared with PQVPQCKALYAYDAQDTDEISFNANDIIDIIKEDPSGWWTGRLRGKQGLFPNNYVTKI [L20I], PQVPQCKALYAYDAQDTDELSYNANDIIDIIKEDPSGWWTGRLRGKQGLFPNNYVTKI [F22Y] is lower in abundance fitness: -0.05 ± 0.087 for the first, -0.714 ± 0.41 for the second.

From the Human Domainome abundance scans (Beltran et al. 2025)
